The data set has as its target T1, PUF4 RNA-binding domain (Saccharomyces cerevisiae, UniProt P25339 537-888).
T1 sequence: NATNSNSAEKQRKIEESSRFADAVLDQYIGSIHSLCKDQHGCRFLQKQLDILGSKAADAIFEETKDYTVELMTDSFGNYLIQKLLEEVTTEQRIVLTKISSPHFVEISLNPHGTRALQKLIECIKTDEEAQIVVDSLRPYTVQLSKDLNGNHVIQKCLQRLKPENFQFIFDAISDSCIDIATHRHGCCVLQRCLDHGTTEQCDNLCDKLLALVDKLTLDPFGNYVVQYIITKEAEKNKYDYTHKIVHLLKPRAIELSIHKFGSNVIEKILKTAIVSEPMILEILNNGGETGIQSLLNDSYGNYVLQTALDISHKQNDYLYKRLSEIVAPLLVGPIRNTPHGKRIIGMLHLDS
As to the kind of experiment: Mg; RNA-MaP; 20 mM Na-HEPES pH 7.4, 30 mM KOAc, 0.75 mM MgCl2, 0.1% Tween-20, 5% glycerol, 0.1 mg/mL BSA, 2 mM DTT; 25 C; 0.0125-409.6 nM protein. To be noted: tags: N-His6-TEV cleaved; C-SNAP kept, Cy3B-labelled; label: tethered on chip by stalled RNA polymerase.

B1: Ib_S1_P5E.1_K5.1_C5.1_H5.1_[A4C]_A5.1_F5.1_[A10C]_T5.1 (ssRNA)
RNA: UCUCUUUGUCUUAUUCUCUCUU
The term Kd denotes the concentration at which binding is half-saturated. A high value points to a looser complex. Consider B1, for which the affinity, expressed as Kd, was 1350 nM.

B2: Id_ii_S2_P4E.3_K4.2_C4.2_[T-1C]_H4.2_A4.1_F4.1_T4.2_[G10T]_[T11A] (ssRNA)
RNA: UUUGAUUAAUAUGAUAUCGUUCUUUCUCCUAUAUAUUAUAUUCUUUCUCGAUAUCAUAUUAAUCUUU
Molecule B2 had a Kd of 17 nM.

B3: Id_ii_S2_P4E.3_K4.2_C4.2_[T-1A]_H4.2_A4.1_F4.1_T4.2_[G10C]_[T11A] (ssRNA)
RNA: UUUGAUUAAUAUGAUAUCGUUCUUUCUCAUAUAUAUUACAUUCUUUCUCGAUAUCAUAUUAAUCUUU
In turn, B3 displayed a Kd of 16.3 nM.

B4: Id_ii_S2_P4E.4_K4.3_C4.2_[C-2G]_H4.3_A4.1_F4.1_T4.2_[G10A] (ssRNA)
RNA: UUUGAUUAAUAUGAUAUCGUUCUUUCUGUACACUAUUAAUUUCUUUCUCGAUAUCAUAUUAAUCUUU
B4 yielded a Kd of 0.412 nM.

B5: Id_ii_S2_P4E.3_K4.2_C4.2_H4.2_A4.1_F4.1_T4.2_[G10A] (ssRNA)
RNA: UUUGAUUAAUAUGAUAUCGUUCUUUCUCUUAUAUAUUAAUUUCUUUCUCGAUAUCAUAUUAAUCUUU
Take B5: the affinity, expressed as Kd, was 9.82 nM. Against the preceding molecule, the Kd is about 24-fold higher.

B6: Id_ii_S2_P4E.3_K4.2_C4.2_[T-1C]_H4.2_A4.1_F4.1_T4.2_[G10T] (ssRNA)
RNA: UUUGAUUAAUAUGAUAUCGUUCUUUCUCCUAUAUAUUAUUUUCUUUCUCGAUAUCAUAUUAAUCUUU
Take B6: binding was characterised by a dissociation constant (Kd) of 3.61 nM.

B7: Id_ii_S2_P4E.4_K4.3_C4.2_[C-2G]_[T-1C]_H4.3_A4.1_F4.1_T4.2_[G10A]_[T11A] (ssRNA)
RNA: UUUGAUUAAUAUGAUAUCGUUCUUUCUGCACACUAUUAAAUUCUUUCUCGAUAUCAUAUUAAUCUUU
In the case of B7, binding was put at a Kd of 23.6 nM. Against the preceding molecule, the Kd is about 6.5-fold higher.

B8: Id_ii_S2_P4E.4_K4.3_C4.2_[C-2G]_H4.3_A4.1_F4.1_T4.2_[G10T]_[T11A] (ssRNA)
RNA: UUUGAUUAAUAUGAUAUCGUUCUUUCUGUACACUAUUAUAUUCUUUCUCGAUAUCAUAUUAAUCUUU
In turn, B8 displayed a Kd of 0.496 nM.

B9: Id_ii_S2_P4E.3_K4.2_C4.2_[T-1A]_H4.2_A4.1_F4.1_T4.2_[T11G] (ssRNA)
RNA: UUUGAUUAAUAUGAUAUCGUUCUUUCUCAUAUAUAUUAGGUUCUUUCUCGAUAUCAUAUUAAUCUUU
In turn, B9 returned a Kd of 46.4 nM. This Kd is about 94-fold higher than that of the molecule before.

B10: Id_ii_S2_P4E.4_K4.3_C4.2_[C-2G]_H4.3_A4.1_F4.1_T4.2_[G10C]_[T11C] (ssRNA)
RNA: UUUGAUUAAUAUGAUAUCGUUCUUUCUGUACACUAUUACCUUCUUUCUCGAUAUCAUAUUAAUCUUU
B10 displayed a Kd of 0.865 nM.

B11: Id_ii_S2_P4E.4_K4.3_C4.2_[C-2G]_H4.3_A4.1_F4.1_T4.2_[G10A]_[T11C] (ssRNA)
RNA: UUUGAUUAAUAUGAUAUCGUUCUUUCUGUACACUAUUAACUUCUUUCUCGAUAUCAUAUUAAUCUUU
For the molecule B11, the Kd turned out to be 0.5 nM.

B12: Id_ii_S2_P4E.3_K4.2_C4.2_[T-1A]_H4.2_A4.1_F4.1_T4.2_[G10T] (ssRNA)
RNA: UUUGAUUAAUAUGAUAUCGUUCUUUCUCAUAUAUAUUAUUUUCUUUCUCGAUAUCAUAUUAAUCUUU
As for B12, binding was characterised by a dissociation constant (Kd) of 8.24 nM.

B13: Id_ii_S2_P4E.3_K4.2_C4.2_H4.2_A4.1_F4.1_T4.2_[G10T]_[T11C] (ssRNA)
RNA: UUUGAUUAAUAUGAUAUCGUUCUUUCUCUUAUAUAUUAUCUUCUUUCUCGAUAUCAUAUUAAUCUUU
Consider B13, for which binding was characterised by a dissociation constant (Kd) of 4.61 nM. This Kd is about 1.8-fold lower than that of the molecule before.

B14: Id_ii_S2_P4E.3_K4.2_C4.2_H4.2_A4.1_F4.1_T4.2_[G10C]_[T11A] (ssRNA)
RNA: UUUGAUUAAUAUGAUAUCGUUCUUUCUCUUAUAUAUUACAUUCUUUCUCGAUAUCAUAUUAAUCUUU
In turn, B14 yielded a Kd of 8.35 nM.

B15: Id_ii_S2_P4E.3_K4.2_C4.2_[T-1A]_H4.2_A4.1_F4.1_T4.2_[G10A] (ssRNA)
RNA: UUUGAUUAAUAUGAUAUCGUUCUUUCUCAUAUAUAUUAAUUUCUUUCUCGAUAUCAUAUUAAUCUUU
In turn, B15 returned a Kd of 10.1 nM.

B16: Id_ii_S2_P4E.3_K4.2_C4.2_H4.2_A4.1_F4.1_T4.2_[G10T] (ssRNA)
RNA: UUUGAUUAAUAUGAUAUCGUUCUUUCUCUUAUAUAUUAUUUUCUUUCUCGAUAUCAUAUUAAUCUUU
The molecule B16 yielded a Kd of 3.81 nM.

B17: Id_ii_S2_P4E.3_K4.2_C4.2_[T-1A]_H4.2_A4.1_F4.1_T4.2 (ssRNA)
RNA: UUUGAUUAAUAUGAUAUCGUUCUUUCUCAUAUAUAUUAGUUUCUUUCUCGAUAUCAUAUUAAUCUUU
Consider B17, for which binding was put at a Kd of 8.89 nM.

B18: Id_ii_S2_P4E.3_K4.2_C4.2_[T-1A]_H4.2_A4.1_F4.1_T4.2_[G10A]_[T11G] (ssRNA)
RNA: UUUGAUUAAUAUGAUAUCGUUCUUUCUCAUAUAUAUUAAGUUCUUUCUCGAUAUCAUAUUAAUCUUU
With B18, the Kd worked out at 360 nM.

B19: Id_ii_S2_P4E.3_K4.2_C4.2_[T-1C]_H4.2_A4.1_F4.1_T4.2_[G10A] (ssRNA)
RNA: UUUGAUUAAUAUGAUAUCGUUCUUUCUCCUAUAUAUUAAUUUCUUUCUCGAUAUCAUAUUAAUCUUU
For B19, binding was put at a Kd of 7.32 nM. This Kd lies about 49-fold lower than the previous one.

B20: If_S2_P4E.3_K4.2_C4.2_H4.2_A4.1_F4.1_T4.2 (ssRNA)
RNA: UUUGAUUAAUAUGAUAUCGUUCUUUCUCUUAUAUAUUAGUUUCUUUCUCGAUAUCAUAUUAAUCUUU
On to B20, for which the Kd was 10.4 nM.

B21: Id_ii_S2_P4E.3_K4.2_C4.2_[T-1A]_H4.2_A4.1_F4.1_T4.2_[G10C] (ssRNA)
RNA: UUUGAUUAAUAUGAUAUCGUUCUUUCUCAUAUAUAUUACUUUCUUUCUCGAUAUCAUAUUAAUCUUU
B21 had a Kd of 7.44 nM.

B22: Id_ii_S2_P4E.3_K4.2_C4.2_H4.2_A4.1_F4.1_T4.2_[G10C]_[T11G] (ssRNA)
RNA: UUUGAUUAAUAUGAUAUCGUUCUUUCUCUUAUAUAUUACGUUCUUUCUCGAUAUCAUAUUAAUCUUU
In the case of B22, binding was put at a Kd of 18.8 nM. This Kd is about 2.5-fold higher than that of the molecule before.

B23: Id_ii_S2_P4E.4_K4.3_C4.2_[C-2G]_H4.3_A4.1_F4.1_T4.2_[G10A]_[T11A] (ssRNA)
RNA: UUUGAUUAAUAUGAUAUCGUUCUUUCUGUACACUAUUAAAUUCUUUCUCGAUAUCAUAUUAAUCUUU
As to B23, binding was characterised by a dissociation constant (Kd) of 0.354 nM.

B24: Id_ii_S2_P4E.3_K4.2_C4.2_[T-1A]_H4.2_A4.1_F4.1_T4.2_[G10A]_[T11C] (ssRNA)
RNA: UUUGAUUAAUAUGAUAUCGUUCUUUCUCAUAUAUAUUAACUUCUUUCUCGAUAUCAUAUUAAUCUUU
For the molecule B24, the Kd worked out at 17.8 nM.

B25: Id_ii_S2_P4E.3_K4.2_C4.2_[T-1A]_H4.2_A4.1_F4.1_T4.2_[G10A]_[T11A] (ssRNA)
RNA: UUUGAUUAAUAUGAUAUCGUUCUUUCUCAUAUAUAUUAAAUUCUUUCUCGAUAUCAUAUUAAUCUUU
For the molecule B25, binding was characterised by a dissociation constant (Kd) of 37.6 nM. Against the preceding molecule, the Kd is about 2.1-fold higher.

B26: Id_ii_S2_P4E.3_K4.2_C4.2_[T-1A]_H4.2_A4.1_F4.1_T4.2_[G10C]_[T11C] (ssRNA)
RNA: UUUGAUUAAUAUGAUAUCGUUCUUUCUCAUAUAUAUUACCUUCUUUCUCGAUAUCAUAUUAAUCUUU
The molecule B26 registered a Kd of 10.3 nM.

B27: Id_ii_S2_P4E.4_K4.3_C4.2_[C-2G]_[T-1C]_H4.3_A4.1_F4.1_T4.2 (ssRNA)
RNA: UUUGAUUAAUAUGAUAUCGUUCUUUCUGCACACUAUUAGUUUCUUUCUCGAUAUCAUAUUAAUCUUU
With B27, the affinity, expressed as Kd, was 448 nM. This Kd is about 43-fold higher than that of the molecule before.

B28: Id_ii_S2_P4E.3_K4.2_C4.2_[T-1C]_H4.2_A4.1_F4.1_T4.2_[G10A]_[T11A] (ssRNA)
RNA: UUUGAUUAAUAUGAUAUCGUUCUUUCUCCUAUAUAUUAAAUUCUUUCUCGAUAUCAUAUUAAUCUUU
B28 returned a Kd of 12.2 nM.

B29: Id_ii_S2_P4E.3_K4.2_C4.2_H4.2_A4.1_F4.1_T4.2_[T11C] (ssRNA)
RNA: UUUGAUUAAUAUGAUAUCGUUCUUUCUCUUAUAUAUUAGCUUCUUUCUCGAUAUCAUAUUAAUCUUU
B29 showed a Kd of 7.25 nM.

B30: Id_ii_S2_P4E.3_K4.2_C4.2_H4.2_A4.1_F4.1_T4.2_[G10A]_[T11C] (ssRNA)
RNA: UUUGAUUAAUAUGAUAUCGUUCUUUCUCUUAUAUAUUAACUUCUUUCUCGAUAUCAUAUUAAUCUUU
B30 registered a Kd of 14 nM.

B31: Id_ii_S2_P4E.3_K4.2_C4.2_[T-1A]_H4.2_A4.1_F4.1_T4.2_[G10C]_[T11G] (ssRNA)
RNA: UUUGAUUAAUAUGAUAUCGUUCUUUCUCAUAUAUAUUACGUUCUUUCUCGAUAUCAUAUUAAUCUUU
For the molecule B31, the Kd turned out to be 32.8 nM. Compared with the last molecule, the Kd is about 2.3-fold higher.

B32: Ib_S1_P5E.1_K5.1_C5.1_H5.1_[A4C]_A5.1_F5.1_[A10T]_T5.1 (ssRNA)
RNA: UCUCUUUGUCUUAUUUUCUCUU
B32 returned a Kd of 775 nM.

B33: Ib_S1_P5E.1_K5.1_C5.1_H5.1_[A4T]_A5.1_F5.1_[A10C]_T5.1 (ssRNA)
RNA: UCUCUUUGUUUUAUUCUCUCUU
B33 had a Kd of 899 nM.

The values are drawn from PMC9352680, “A comprehensive thermodynamic model for RNA binding by the Saccharomyces cerevisiae Pumilio protein PUF4”.
